In patent publication US20220041718A1 (AUTOLUS, published 2022):
Residue numbers refer to the chain shown, from its start. Numbers in names are those of the source.

B1: anti-TRBC2 scFv (T28K, Y32F, A100N, Y102L, N103M in VH; N35R in VL of hJovi-1) (scFv)
scFv: QVQLVQSGAEVKKPGASVKVSCKASGYKFTGFVMHWVRQAPGQGLEWMGFINPYNDDIQSNERFRGRVTMTRDTSISTAYMELSRLRSDDTAVYYCARGNGLMFDGAYRFFDFWGQGTMVTVSSGGGGSGGGGSGGGGSDIVMTQSPLSLPVTPGEPASISCRSSQRLVHSNGRTYLHWYLQKPGQSPRLLIYRVSNRFPGVPDRFSGSGSGTDFTLKISRVEAEDVGVYYCSQSTHVPYTFGQGTKLEIKR
notes: the format in the assay is unsure
B2: anti-TRBC2 scFv-COMP (T28K, Y32F, A100N, Y102L, N103M in VH; N35R in VL of hJovi-1) (other)
chain: QVQLVQSGAEVKKPGASVKVSCKASGYKFTGFVMHWVRQAPGQGLEWMGFINPYNDDIQSNERFRGRVTMTRDTSISTAYMELSRLRSDDTAVYYCARGNGLMFDGAYRFFDFWGQGTMVTVSSGGGGSGGGGSGGGGSDIVMTQSPLSLPVTPGEPASISCRSSQRLVHSNGRTYLHWYLQKPGQSPRLLIYRVSNRFPGVPDRFSGSGSGTDFTLKISRVEAEDVGVYYCSQSTHVPYTFGQGTKLEIKRSGGGGSGGGGSGGGGSAGSDLGPQMLRELQETNAALQDVRELLRQQVREITFLKNTVMECDACGSGKKDPKSGGGGSYPYDVPDYA
notes: scFv fused to the COMP coiled-coil
B3: hJovi-1 variant IgG, VH T28K, Y32F, A100N, Y102F, N103M; VL N35K (antibody, V domains shown)
VH: QVQLVQSGAEVKKPGASVKVSCKASGYKFTGFVMHWVRQAPGQGLEWMGFINPYNDDIQSNERFRGRVTMTRDTSISTAYMELSRLRSDDTAVYYCARGNGFMFDGAYRFFDFWGQGTMVTVSS
VL: DIVMTQSPLSLPVTPGEPASISCRSSQRLVHSNGKTYLHWYLQKPGQSPRLLIYRVSNRFPGVPDRFSGSGSGTDFTLKISRVEAEDVGVYYCSQSTHVPYTFGQGTKLEIK
notes: IgG format
B4: hJovi-1 variant IgG, VH T28K, Y32F, A100N, Y102F, N103M; VL N35R (antibody, V domains shown)
VH: B3 VH
VL: B3 VL with K35R
notes: IgG format
B5: hJovi-1 variant IgG, VH T28K, Y32F, A100N, Y102F; VL N35R (antibody, V domains shown)
VH: B3 VH with M103N
VL: B3 VL with K35R
notes: IgG format
B6: hJovi-1 variant IgG, VH T28K, Y32F, A100N, Y102F; VL unmutated (antibody, V domains shown)
VH: B3 VH with M103N
VL: B3 VL with K35N
notes: IgG format
B7: hJovi-1 variant IgG, VH T28K, Y32F, A100N, Y102L, N103M; VL N35R (antibody, V domains shown)
VH: B3 VH with F102L
VL: B3 VL with K35R
notes: IgG format
B8: hJovi-1 variant IgG, VH T28K, Y32F, A100N, Y102L, N103W; VL N35K (antibody, V domains shown)
VH: B3 VH with F102L, M103W
VL: B3 VL
notes: IgG format
B9: hJovi-1 variant IgG, VH T28K, Y32F, A100N, Y102L, N103W; VL N35R (antibody, V domains shown)
VH: B3 VH with F102L, M103W
VL: B3 VL with K35R
notes: IgG format
B10: hJovi-1 variant IgG, VH T28K, Y32F, A100N; VL N35F (antibody, V domains shown)
VH: B3 VH with F102Y, M103N
VL: B3 VL with K35F
notes: IgG format
B11: hJovi-1 variant IgG, VH T28K, Y32F, A100N; VL N35K (antibody, V domains shown)
VH: B3 VH with F102Y, M103N
VL: B3 VL
notes: IgG format
B12: hJovi-1 variant IgG, VH T28K, Y32F, A100N; VL N35R (antibody, V domains shown)
VH: B3 VH with F102Y, M103N
VL: B3 VL with K35R
notes: IgG format
B13: hJovi-1 variant IgG, VH T28K, Y32F, R98K, A100N; VL unmutated (antibody, V domains shown)
VH: B3 VH with R98K, F102Y, M103N
VL: B3 VL with K35N
notes: IgG format
B14: hJovi-1 variant IgG, VH T28R, Y32F, A100N; VL unmutated (antibody, V domains shown)
VH: B3 VH with K28R, F102Y, M103N
VL: B3 VL with K35N
notes: IgG format
B15: hJovi-1 variant IgG, VH V2K, T28K, Y32F, A100N; VL unmutated (antibody, V domains shown)
VH: B3 VH with V2K, F102Y, M103N
VL: B3 VL with K35N
notes: IgG format
B16: hJovi-1 variant IgG, VH V2R, T28K, Y32F, A100N; VL unmutated (antibody, V domains shown)
VH: B3 VH with V2R, F102Y, M103N
VL: B3 VL with K35N
notes: IgG format
B17: hJovi-1 variant IgG, VH Y27F, T28K, Y32F, A100N; VL unmutated (antibody, V domains shown)
VH: B3 VH with Y27F, F102Y, M103N
VL: B3 VL with K35N
notes: IgG format
B18: hJovi-1 variant IgG, VH Y27N, T28K, Y32F, A100N; VL unmutated (antibody, V domains shown)
VH: B3 VH with Y27N, F102Y, M103N
VL: B3 VL with K35N
notes: IgG format
B19: hJovi-1 variant IgG, VH Y27W, T28K, Y32F, A100N; VL unmutated (antibody, V domains shown)
VH: B3 VH with Y27W, F102Y, M103N
VL: B3 VL with K35N
notes: IgG format
B20: anti-TRBC2 scFv-Fc (T28K, Y32F, A100N, Y102L, N103M in VH; N35R in VL of hJovi-1) (Fc fusion)
chain: QVQLVQSGAEVKKPGASVKVSCKASGYKFTGFVMHWVRQAPGQGLEWMGFINPYNDDIQSNERFRGRVTMTRDTSISTAYMELSRLRSDDTAVYYCARGNGLMFDGAYRFFDFWGQGTMVTVSSGGGGSGGGGSGGGGSDIVMTQSPLSLPVTPGEPASISCRSSQRLVHSNGRTYLHWYLQKPGQSPRLLIYRVSNRFPGVPDRFSGSGSGTDFTLKISRVEAEDVGVYYCSQSTHVPYTFGQGTKLEIKRSDPRGPTIKPCPPCKCPAPNLLGGPSVFIFPPKIKDVLMISLSPIVTCVVVDVSEDDPDVQISWFVNNVEVHTAQTQTHREDYNSTLRVVSALPIQHQDWMSGKEFKCKVNNKDLPAPIERTISKPKGSVRAPQVYVLPPPEEEMTKKQVTLTCMVTDFMPEDIYVEWTNNGKTELNYKNTEPVLDSDGSYFMYSKLRVEKKNWVERNSYSCSVVHEGLHNHHTTKSFSRTPGK
notes: Multivalent format

Legend:
[1] = target: T1, Recombinant purified TRBC2 (human, UniProt A0A5B9 1-129, limits assumed); experiment: SPR (Biacore T200), captured anti-TRBC2 binder, recombinant TRBC2 as analyte; half-life of dissociation, t1/2 = ln 2/kd
T1 construct: Construct not described (may be a soluble TCR carrying TRBC2); also called TCR beta constant region 2; soluble recombinant biotinylated TRBC2
Source text: (§1) To test 1:1 binding interaction of the anti-TRBC2 scFv, a series S CM5 sensor chip was immobilised via amine coupling, with an anti-human Fc capture antibody to a density of 9000-10000 RU, using a Biacore T200 instrument. HBS-P+ buffer was used as running buffer in all experimental conditions. The test anti-TRBC2 antibody was captured on flow 4 to a density of 200-250 RU. Recombinant purified TRBC1 or TRBC2 at known concentrations were used as the ‘analyte’ and injected over the respective flow cells with 150s contact time and 300s dissociation at 30 μl/minute of flow rate. Flow cell 1 was unmodified and used for reference subtraction. A ‘0 concentration’ sensorgram of buffer alone was used as a double reference subtraction to factor for drift. Data were fit to a 1:1 Langmuir binding model. Since a capture system was used, a local Rₘₐₓ parameter was used for the data fitting in each case. Off-rate value was determined, and half-life calculated according to: t1/2=ln 2/kd.

[2] = target: T1, Recombinant purified TRBC2; experiment: SPR, 1:1 interaction, antibody captured, TRBC as analyte; t1/2=ln 2/kd
Source text: as §1

[3] = target: T1, Recombinant purified TRBC2; experiment: SPR, biotinylated TRBC captured on CAP chip, antibody injected; t1/2=ln 2/kd
Method: (§2) To test multivalent interaction of scFv-Fc and scFv-COMP antibody formats, a series S CAP chip was immobilised with Biotin capture reagent to 2500-5000 RU. Soluble recombinant biotinylated TRBC1 and TRBC2 were captured on flow cells 3, in independent experimental cycles, to a density of 90-110 RU. Purified anti-TRBC2 scFv-Fc or scFv-COMP antibodies were injected over the flow cell with 150s contact time and 300s dissociation at 30 μl/minute of flow rate. On flow cell 1, biotinylated protein was omitted and used for reference subtraction. A ‘0 concentration’ sensorgram of buffer alone was used as a double reference subtraction to factor for drift. Data were fit to a 1:1 Langmuir binding model. Since a capture system was used, a local Rmax parameter was used for the data fitting in each case. Off-rate value was determined, and half-life calculated according to: t1/2=ln 2/kd.

[4] = target: T1, Recombinant purified TRBC2; experiment: SPR (Biacore T200), biotinylated TRBC2 captured on a CAP chip, scFv-COMP injected; half-life of dissociation, t1/2 = ln 2/kd [cont.) C]
Method: as §2

[5] = target: T1, Recombinant purified TRBC2; experiment: SPR, IgG captured on anti-human Fc, TRBC2 as analyte
Source text: (§3) A series S CM5 sensor chip was immobilised via amine coupling, with an anti-human Fc capture antibody to a density of 9000-10000 RU, using a Biacore T200 instrument. HBS-P+ buffer was used as running buffer in all experimental conditions. The test anti-TRBC2 antibodies (Table 1) were captured on flow cells 2, 3 and 4 to a density of 100-300 RU. Recombinant purified TRBC1 or TRBC2 at known concentrations were used as the ‘analyte’ and injected over the respective flow cells with 150s contact time and 300s dissociation at 30 μl/minute of flow rate. In each experiment, flow cell 1 was unmodified and used for reference subtraction. A ‘0 concentration’ sensorgram of buffer alone was used as a double reference subtraction to factor for drift. Data were fit to a 1:1 Langmuir binding model. Since a capture system was used, a local Rₘₐₓ parameter was used for the data fitting in each case.

[6] = target: T2, Recombinant purified TRBC1 (human, UniProt P01850 1-129, limits assumed); experiment: SPR, IgG captured on anti-human Fc, TRBC1 as analyte
T2 construct: Construct not described (may be a soluble TCR carrying TRBC1); also called TCR beta constant region 1; soluble recombinant biotinylated TRBC1
Source text: as §3

T1 sequence (A0A5B9 1-129 limits assumed): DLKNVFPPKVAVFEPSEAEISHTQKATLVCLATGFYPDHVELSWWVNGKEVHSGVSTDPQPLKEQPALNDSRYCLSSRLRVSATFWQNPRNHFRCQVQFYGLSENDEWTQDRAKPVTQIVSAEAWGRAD
T2 sequence (P01850 1-129 limits assumed): as the sequence (A0A5B9 1-129 limits assumed) above, with K3N, N4K, K9E, Y36F counted along it

Row | Binder | Kd [5] | Kd [6] | also measured
1 | B1 | – | – | t1/2 [1]: 8.3 s; half-life [2]: 8 s
2 | B2 | – | – | half-life [3]: 438 s; t1/2 [4]: 436 s
3 | B3 | 0.909 µM | 9.31 µM | –
4 | B4 | 0.968 µM | 7.91 µM | –
5 | B5 | 2.7 µM | 18.9 µM | –
6 | B6 | 2.61 µM | – | binding result [6]: no binding
7 | B7 | 1.9 µM | – | binding result [6]: no binding
8 | B8 | 1.72 µM | – | binding result [6]: no binding
9 | B9 | 1.51 µM | – | binding result [6]: no binding
10 | B10 | 0.646 µM | 2.81 µM | –
11 | B11 | 0.192 µM | 1 µM | –
12 | B12 | 0.202 µM | 0.929 µM | –
13 | B13 | 1.08 µM | 4.66 µM | –
14 | B14 | 0.582 µM | 1.44 µM | –
15 | B15 | 0.883 µM | 2.4 µM | –
16 | B16 | 1.6 µM | 5.11 µM | –
17 | B17 | 1.21 µM | 4.48 µM | –
18 | B18 | 6.95 µM | 74.3 µM | –
19 | B19 | 3.06 µM | 21 µM | –
20 | B20 | – | – | half-life [3]: 16.2 s
